Where a chain is given by its changes, count along the chain named. Read-outs that look alike come from different tables or passages of the source.
Tests used:
human serum albumin [1] = molecular target: T1, human serum albumin (human, UniProt P02768 25-609); experiment: SPR (Biacore 8K+, single cycle kinetics), HSA on CM5 chip
T1 construct: also called HSA

human serum albumin [2] = molecular target: T1, human serum albumin; experiment: SPR (Biacore 8K+, single cycle kinetics), HSA on CM5 chip, HBS-EP+ pH 7.4
human serum albumin [3] = molecular target: T1, human serum albumin; experiment: SPR (Biacore 8K+, single cycle kinetics), HSA on CM5 chip, citrate buffer pH 5.5
human serum albumin [4] = molecular target: T1, human serum albumin; experiment: SPR (Biacore 3000), HSA on chip, Fc-ABDEG fusion, pH 5.5
human serum albumin [5] = molecular target: T1, human serum albumin; experiment: as above; remark: listed apart in the source
[6] = molecular target: T2, cynomolgus monkey serum albumin (cynomolgus monkey, UniProt A2V9Z4 25-608); experiment: SPR (Biacore 3000), cyno albumin on chip, Fc-ABDEG fusion, pH 7.4
T2 construct: also called cyno albumin; CSA

human serum albumin [7] = molecular target: T1, human serum albumin; experiment: SPR (Biacore 3000), HSA on chip, Fc-ABDEG fusion, ratio of R0
[8] = molecular target: T2, cynomolgus monkey serum albumin; experiment: SPR (Biacore 3000), cyno albumin on chip, Fc-ABDEG fusion, pH 5.5
human serum albumin [9] = molecular target: T1, human serum albumin; experiment: SPR (Biacore 3000), HSA on chip, Fc-ABDEG fusion, pH 7.4
human serum albumin [10] = molecular target: T1, human serum albumin; experiment: SPR (Biacore 3000), HSA on chip, Fc-ABDEG fusion, ratio of R0; remark: listed apart in the source
[11] = molecular target: T2, cynomolgus monkey serum albumin; experiment: SPR (Biacore 3000), cyno albumin on chip, Fc-ABDEG fusion, ratio of R0
human serum albumin [12] = molecular target: T1, human serum albumin; experiment: SPR (Biacore 3000), HSA on chip, Fc-ABDEG fusion, pH 7.4; remark: listed apart in the source

“Motavizumab-Fab fragment with Alb23 fused C-terminally to the light chain using a 20GS linker” showed a KD ratio (pH 7.4 / pH 5.5) (human serum albumin [1]) of 5.28, a Kd (human serum albumin [2]) of 65 nM and a Kd (human serum albumin [3]) of 12.3 nM.

B1: 11C03 parental fused at the C-terminus of Fc-ABDEG (Fc fusion, not shown: a dimerising Fc or GST; small tags and cut ends)
chain: QLQVVESGGGLVQAGGSLRLSCAASERTFVAYPMGWFRQAPEKEREFVAGISWFAGATTDYADSVEGRFTISRDNAKNTAYLQMNNLKPEDTAVYYCAISHQLPGGRPGRDMDSYSYWGHGTQVTVSS
In the case of B1, the “R0 pH 5.5” value (human serum albumin [4]) is reported as 229 RU, the “R0 pH 5.5” value (human serum albumin [5]) is reported as 177 RU and the “R0 pH 7.4” value [6] is reported as 33 RU. The “R0 5.5/7.4” value (human serum albumin [7]) was 4.22, the “R0 pH 5.5” value [8] was 220 RU and the “R0 pH 7.4” value (human serum albumin [9]) was 57 RU. The “R0 5.5/7.4” value (human serum albumin [10]) was 4, the “R0 5.5/7.4” value [11] was 6.7 and the “R0 pH 7.4” value (human serum albumin [12]) was 42.2 RU.

B2: 11C03-v6 fused at the C-terminus of Fc-ABDEG (Fc fusion, not shown: a dimerising Fc or GST; small tags and cut ends)
chain: B1 chain with G105A
In the case of B2, the “R0 pH 5.5” value (human serum albumin [5]) is reported as 39.3 RU, the “R0 5.5/7.4” value (human serum albumin [7]) is reported as 3.26 and the “R0 pH 7.4” value (human serum albumin [12]) is reported as 12.1 RU.

B3: Motavizumab-Fab fragment fused with 2H11 C-terminally to the light chain using a 20GS linker (protein, part only; not given: motavizumab Fab and linker, not shown: another chain or arm of the molecule; small tags and cut ends)
VHH: ELQVVESGGGLVQAGGSLRLSCAASGRTFRSNTMGWFRQAPGKEREFVAAITWSGGTTYYADSVKGRFAISGDNAKNTVYLQMNSLKPEDTAVYYCAAEGPKWEPWNGIYHPADFGSWGQGTQVTVSS
For B3, the KD ratio (pH 7.4 / pH 5.5) (human serum albumin [1]) was 92.6, the Kd (human serum albumin [2]) was 264 nM and the Kd (human serum albumin [3]) was 2.85 nM.
